This assay concerns the target PROTEIN KINASE SU… PROTEIN (AIK1), Prot-A fusion (Arabidopsis thaliana). Briefly: co-IP; LUMIER in HEK293TN cells: Prot-A fusion co-transfected with Renilla luciferase fusion (AN always the luciferase fusion with the interactors); luciferase activity before (input) and after pulldown; percentage pulldown = pulldown/input x 100; empty vectors as negative control; positive if more than two times the background.

Sequence of PROTEIN KINASE SU… PROTEIN (AIK1), Prot-A fusion (Arabidopsis thaliana) (main, as listed by the source): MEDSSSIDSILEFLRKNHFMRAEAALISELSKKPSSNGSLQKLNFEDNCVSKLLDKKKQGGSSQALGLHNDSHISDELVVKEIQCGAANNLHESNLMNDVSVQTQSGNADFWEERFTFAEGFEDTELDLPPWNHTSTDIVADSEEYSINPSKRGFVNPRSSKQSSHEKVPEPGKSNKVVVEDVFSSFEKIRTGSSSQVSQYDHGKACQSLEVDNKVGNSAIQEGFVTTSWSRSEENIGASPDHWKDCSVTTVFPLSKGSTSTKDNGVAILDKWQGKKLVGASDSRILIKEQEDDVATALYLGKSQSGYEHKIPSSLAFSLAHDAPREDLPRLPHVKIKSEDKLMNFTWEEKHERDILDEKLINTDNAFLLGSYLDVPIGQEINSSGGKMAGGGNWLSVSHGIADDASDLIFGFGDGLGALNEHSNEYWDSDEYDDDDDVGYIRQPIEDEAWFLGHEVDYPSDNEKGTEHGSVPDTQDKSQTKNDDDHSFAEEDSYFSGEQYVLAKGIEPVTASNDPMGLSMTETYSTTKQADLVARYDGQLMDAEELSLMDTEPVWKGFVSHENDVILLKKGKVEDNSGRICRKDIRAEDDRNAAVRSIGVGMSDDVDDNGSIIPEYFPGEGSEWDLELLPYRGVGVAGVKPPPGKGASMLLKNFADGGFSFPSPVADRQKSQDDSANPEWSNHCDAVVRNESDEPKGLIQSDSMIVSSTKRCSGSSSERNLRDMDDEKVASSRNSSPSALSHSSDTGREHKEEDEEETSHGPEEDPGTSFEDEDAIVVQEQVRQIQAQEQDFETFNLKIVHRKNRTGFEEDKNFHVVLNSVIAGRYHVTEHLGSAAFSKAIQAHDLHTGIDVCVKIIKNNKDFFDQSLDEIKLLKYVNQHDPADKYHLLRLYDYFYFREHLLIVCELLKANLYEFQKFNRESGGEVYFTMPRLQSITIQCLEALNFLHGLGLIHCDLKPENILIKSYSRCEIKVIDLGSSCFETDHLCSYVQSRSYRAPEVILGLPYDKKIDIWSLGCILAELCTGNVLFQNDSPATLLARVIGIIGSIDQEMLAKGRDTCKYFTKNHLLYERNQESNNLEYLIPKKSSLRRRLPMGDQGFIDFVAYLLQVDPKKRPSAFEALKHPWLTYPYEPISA

B1: AN^DOQ, Renilla luciferase fusion (LUMIER) (natural protein)
chain: MSKIRSSATMPHRDQPSPASPHVVTLNCIEDCALEQDSLAGVAGVEYVPLSRIADGKIESATAVLLHSLAYLPRAAQRRLRPHQLILCLGSADRAVDSTLAADLGLRLVHVDTSRAEEIADTVMALILGLLRRTHLLSRHALSASGWLGSLQPLCRGMRRCRGMVLGIVDRSVSARYLASRSLAFKMSVLYFDVPEGDEERIRPSRFPRAARRMDTLNDLLAASDVISLHCALTNDTVQILNAECLQHIKPGAFLVNTGSCQLLDDCAVKQLLIDGTIAGCALDGAEGPQWMEAWVKEMPNVLILPRSADYSEEVWMEIREKAISILHSFFLDGVIPSNTVSDEEVEESEASEEEEQSPSKHEKLAIVESTSRQQGESTLTSTEIVRREASELKESLSPGQQHVSQNTAVKPEGRRSRSGKKAKKRHSQQKYMQKTDGSSGLNEESTSRRDDIAMSDTEEVLSSSSRCASPEDSRSRKTPLEVMQESSPNQLVMSSKKFIGKSSELLKDGYVVALYAKDLSGLHVSRQRTKNGGWFLDTLSNVSKRDPAAQFIIAYRNKDTVGLRSFAAGGKLLQINRRMEFVFASHSFDVWESWSLEGSLDECRLVNCRNSSAVLDVRVEILAMVGDDGITRWID
Regarding B1, the interaction as percent of wild-type AN (% of wild-type AN) was 1.6.

(Values after publication PMC5469197, “ANGUSTIFOLIA, a Plant Homolog of CtBP/BARS Localizes to Stress Granules and Regulates Their Formation” (Frontiers in Plant Science, 2017).)
